# From article PMC12746149, “Gluebodies Offer a Route To Improve Crystal Reliability and Diversity through Transferable Nanobody Mutations That Introduce Constitutive Close Contacts” (ACS Central Science, 2025)
# Like-named read-outs stand apart in the source and are kept apart here.
# Key:
# [1] = biological target: T1, MAGEB1 (UniProt P43366); test: crystal structure; nanobody-target complex in two commercial coarse screens (192 conditions, two temperatures); conditions: both partners purified
# T1 construct: MAGEB1
# [2] = biological target: T2, truncated RECQL5 protein (11-453) (UniProt O94762); test: crystal structure; RECQL5 and nanobody mixed 1:1.5, complex isolated by SEC, Hampton Index screen; molecular replacement with PDB 5LB8 and chain A of 2X1O; conditions: both partners purified
# T2 construct: RECQL5, residues 11-453, in pNIC-Bsa4; source: E. coli BL21-DE3-pRARE, purified (Ni-NTA, TEV cleavage, reverse Ni-NTA); not shown: His6, N-terminal, cleaved
# [3] = biological target: T1, MAGEB1
# [4] = biological target: T2, truncated RECQL5 protein (11-453); test: SEC; purified nanobody variants run with RECQL5 on size exclusion chromatography; comigration; conditions: both partners purified
# [5] = biological target: T3, MPP8 chromodomain (residues 53-117) (UniProt Q99549); test: crystal structure; MPP8 and 3A02 gluebody combined 1:1.2, complex isolated on Superdex 75 in 20 mM Hepes pH 7.5, 80 mM NaCl; vapor diffusion at 18 °C, 100 mM sodium acetate, 25% PEG 3000; conditions: both partners purified
# T3 construct: MPP8, the region corresponding to the chromodomain, residues 53-117, in a modified pET30 vector; not shown: His tag, N-terminal, cleaved
# T3 sequence (Q99549 53-117): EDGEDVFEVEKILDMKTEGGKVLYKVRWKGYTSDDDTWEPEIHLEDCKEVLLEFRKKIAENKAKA
# T2 sequence (O94762 11-453): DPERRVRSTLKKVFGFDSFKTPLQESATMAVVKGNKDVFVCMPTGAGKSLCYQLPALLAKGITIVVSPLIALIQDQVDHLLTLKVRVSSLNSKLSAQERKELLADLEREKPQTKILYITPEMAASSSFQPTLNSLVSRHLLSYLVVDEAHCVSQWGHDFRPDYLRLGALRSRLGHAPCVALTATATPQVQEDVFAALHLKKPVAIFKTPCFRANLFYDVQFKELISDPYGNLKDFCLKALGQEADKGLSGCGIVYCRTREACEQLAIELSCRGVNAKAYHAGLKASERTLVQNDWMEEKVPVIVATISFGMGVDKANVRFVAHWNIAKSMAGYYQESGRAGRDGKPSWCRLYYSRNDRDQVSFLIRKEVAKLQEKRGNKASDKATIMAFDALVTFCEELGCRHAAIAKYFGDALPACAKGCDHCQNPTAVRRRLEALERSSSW
# T1 sequence (P43366 whole entry): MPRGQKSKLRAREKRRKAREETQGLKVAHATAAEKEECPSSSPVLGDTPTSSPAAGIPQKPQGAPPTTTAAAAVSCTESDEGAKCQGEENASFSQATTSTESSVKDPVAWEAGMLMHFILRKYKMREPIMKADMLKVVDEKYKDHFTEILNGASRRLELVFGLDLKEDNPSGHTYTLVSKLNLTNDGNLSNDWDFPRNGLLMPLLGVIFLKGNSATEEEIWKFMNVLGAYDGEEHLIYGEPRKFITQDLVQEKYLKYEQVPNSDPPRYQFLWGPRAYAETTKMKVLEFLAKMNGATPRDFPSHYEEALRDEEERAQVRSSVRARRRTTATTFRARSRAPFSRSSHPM
Binder,binding result [2],also measured
"nanobody of the MAGEB1 complex (PDB 6R7T) (VHH, naïve (not engineered) nanobody scaffold) VHH: QVQLQESGGGLVQPGGSLRLSCAASGFTFSTYAMSWFRQAPGKGLEWVASINSSGGGIQSYADSVKGRFTISRDNAKNTLYLQMNSLEPEDTAVYYCAAAAWRVGTYDYRGQGTQVTVSS",,binding result [1]: binds
"RECQL5 nanobody variant G4-043 (VHH, the mutated chain is in PDB 7ZMS; numbers count on: IMGT numbering; G4 and G5 constructs were amplified from the synthesised DNA fragments with a different set of primers; source: E. coli KRX, purified (Ni-NTA, TEV cleavage, reverse Ni-NTA); not shown: MBP (inferred from the G3 scaffold), N-terminal, cleaved; His6 (inferred from the G3 scaffold), N-terminal, cleaved) VHH: QVQLVENGGGCVQATGSLRLSCAASGSIFSINRMTWYRQAPGKEREWVAAITSGGSTNYADSVKGRFTISRDSAKGTVYLQMNSLKPEDTAVYYCEAYGTYTLAPTGEGEYDDYWGQGTQVMVS",binds,
"RECQL5 nanobody variant G3-052 (VHH, the mutated chain is in PDB 7ZMO; numbers count on: IMGT numbering; synthesised DNA in pNIC-MBP2-LIC; no ENLYFQ tail; source: E. coli KRX, purified (Ni-NTA, TEV cleavage, reverse Ni-NTA); not shown: MBP, N-terminal, cleaved; His6, N-terminal, cleaved) VHH: QVQLVENGGGCVQAGGSLRLSCAASGSIFSINRMTWYRQAPGKEREWVAAITSGGSTNYADSVKGRFTISRDSAKGTVYLYMNSLKPEDTAVYYCEAYGTYTLAPTGEGEYDDYWGQGTQVTVS",binds,
"RECQL5 nanobody variant G2*-006 (VHH, the mutated chain is in PDB 7ZMQ; source: E. coli KRX, purified (Ni-NTA, TEV cleavage, reverse Ni-NTA); not shown: MBP (from the vector pNIC-MBP2-LIC), N-terminal, cleaved; His6 (from the vector pNIC-MBP2-LIC), N-terminal, cleaved) VHH: QVQLVENGGGNVQAGGSLRLSCAASGSIFSINRMTWYRQAPGKEREWVAAITSGGSTNYAYSVKGRFTISRDNAKNTVYLQMNSLKPEDTAVYYCEAYGTYTLAPTGEGEYDDYWGQGTQVTVS",binds,
"RECQL5 nanobody variant G2*-011 (VHH, the mutated chain is in PDB 7ZMR; source: E. coli KRX, purified (Ni-NTA, TEV cleavage, reverse Ni-NTA); not shown: MBP (from the vector pNIC-MBP2-LIC), N-terminal, cleaved; His6 (from the vector pNIC-MBP2-LIC), N-terminal, cleaved) VHH: QVQLVENGGGCVQAGGSLKLSCAASGSIFSINRMTWYRQAPGKEREWVAAITSGGSTNYAYSVKGRFTISRDNAKNTVYLQMNSLKPEDTAVYYCEAYGTYTLAPTGEGEYDDYWGQGTQVTVS",binds,
"RECQL5 nanobody variant G3-048 (VHH, the mutated chain is in PDB 7ZMN; numbers count on: IMGT numbering; synthesised DNA in pNIC-MBP2-LIC; no ENLYFQ tail; source: E. coli KRX, purified (Ni-NTA, TEV cleavage, reverse Ni-NTA); not shown: MBP, N-terminal, cleaved; His6, N-terminal, cleaved) VHH: QVQLVENGGGCVQATGSLRLSCAASGSIFSINRMTWYRQAPGKEREWVAAITSGGSTNYADSVKGRFTISRDSAKGTVYLQMNSLKPEDTAVYYCEAYGTYTLAPTGEGEYDDYWGQGTQVTVS",binds,
YNMAGEB1A-c001 (VHH) VHH: QVQLQESGGGLVQAGGSLRLSCAASGFTFDDYAIGWFRQVPGKEREGVSCTSSSVGSTYYADSVKGRFTITSDNAKNTVYLQMNSLKPEDTAVYYCAADSYPYGSTWCRPPFFASWGQGTQVTVS,,binding result [3]: binds
"RECQL5 nanobody variant G1-001 (VHH, the mutated chain is in PDB 7ZML; numbers count on: IMGT numbering; six-residue tail left after TEV cleavage of the C-terminal 6xHis tag; vector pNIC-CTH0; source: E. coli KRX, purified (Ni-NTA, TEV cleavage, reverse Ni-NTA); not shown: His6, C-terminal, cleaved) VHH: QVQLQESGGGLVQAGGSLRLSCAASGSIFSINRMGWYRQAPGKQRELVAAITSGGSTNYAYSVKGRFTISRDNAKNTVYLQMNSLKPEDTAIYYCEAYGTYTLAPTGEGEYDDYWGQGTQVTVSA",,binding result [4]: binds
"RECQL5 nanobody variant G2-001 (VHH, as the chain of m3 (G1-001, D69Y) with S7N:L12C; the mutated chain is in PDB 7ZMM; numbers count on: IMGT numbering; six-residue tail left after TEV cleavage of the C-terminal 6xHis tag; vector pNIC-CTH0; made by mutagenesis from G1-001; source: E. coli KRX, purified (Ni-NTA, TEV cleavage, reverse Ni-NTA); not shown: His6, C-terminal, cleaved) VHH: QVQLQENGGGCVQAGGSLRLSCAASGSIFSINRMGWYRQAPGKQRELVAAITSGGSTNYAYSVKGRFTISRDNAKNTVYLQMNSLKPEDTAIYYCEAYGTYTLAPTGEGEYDDYWGQGTQVTVSA",binds,
"3A02 gluebody (Nb 3A02 nanobody with the Gluebody mutations S7N, Q14K and T125M) (VHH, Nb 3A02 with three stated mutations; the mutated chain is in PDB 9H77; also called Gb; not shown: His tag, N-terminal, cleaved) VHH: QVQLQENGGGLVKPGGSLRLSCAASGFTLSDYVMTWVRQAPGKGPEWVSRISAGGSTRYVDSVKGRFTISRDNAKNTMYLQMNSLKPEDTAVYYCARGSTLFSTNWDYRGQGTQVMVS",,binding result [5]: binds
